Laboratory results published in publication PMC6637149, “Cryo-EM and directed evolution reveal how Arabidopsis nitrilase specificity is influenced by its quaternary structure” (Communications Biology, 2019).
Changes are numbered by the printed parent chain. Numbers in names are those of the source.

Key:
[1] = biological target: the molecule itself; experiment: cryo-EM structure; purified AtNIT4 filaments (~0.15 mg/ml) in 50 mM Tris-HCl pH 8.0, 100 mM NaCl, blotted at ~10% humidity, 25 °C; helical reconstruction, one helical turn treated as a single particle
[2] = biological target: the molecule itself; experiment: negative-stain electron microscopy with 3D helical reconstruction; purified NIT filaments on carbon-coated copper grids, 2% uranyl acetate; iterative helical real-space reconstruction

B1: Arabidopsis thaliana nitrilase 4 (AtNIT4), wild type (enzyme, UniProt P46011 1-355, looked up)
chain: MSMQQETSHMTAAPQTNGHQIFPEIDMSAGDSSSIVRATVVQASTVFYDTPATLDKAERLLSEAAENGSQLVVFPEAFIGGYPRGSTFELAIGSRTAKGRDDFRKYHASAIDVPGPEVERLALMAKKYKVYLVMGVIEREGYTLYCTVLFFDSQGLFLGKHRKLMPTALERCIWGFGDGSTIPVFDTPIGKIGAAICWENRMPSLRTAMYAKGIEIYCAPTADSRETWLASMTHIALEGGCFVLSANQFCRRKDYPSPPEYMFSGSEESLTPDSVVCAGGSSIISPLGIVLAGPNYRGEALITADLDLGDIARAKFDFDVVGHYSRPEVFSLNIREHPRKAVSFKTSKVMEDESV
notes: Nitrilase 4 of Arabidopsis thaliana, NP_197622.1, AT5G22300; 355 residues in all, 289 built in the model; Forms open-ended left-handed helical filaments built of dimers, so no fixed number of copies. pET-21b(+) usually adds a C-terminal His6 tag (surmised); also called AtNIT4 wt; source: E. coli BL21-CodonPlus (DE3)-RIL, pET-21b(+), purified (Ni-NTA, SEC)
B1: binds [1].

B2: AtNIT4 R95T L169A S224Q (enzyme, Arabidopsis thaliana, UniProt P46011 1-355, looked up)
chain: B1 chain with R95T, L169A, S224Q
notes: Nitrilase 4 of Arabidopsis thaliana, NP_197622.1, with three substitutions selected from a site-saturation library made in the vector of the wild type; Selected by directed evolution from the AtNIT4 pET-21b(+) vector; full length is inferred from the parent construct; also called the mutant; NIT4 mutant; source: E. coli BL21-CodonPlus (DE3)-RIL, pET-21b(+), purified (Ni-NTA, SEC)
B2: binds [2].

B3: AtNIT4 R95T (enzyme, Arabidopsis thaliana, UniProt P46011 1-355, looked up)
chain: B1 chain with R95T
notes: Nitrilase 4 of Arabidopsis thaliana, NP_197622.1, with the substitution R95T; Full length is inferred from the parent construct; source: E. coli BL21-CodonPlus (DE3)-RIL, pET-21b(+), purified (Ni-NTA, SEC)
B3: binds [2].
